Key:
[1] = Triton X-100 lysis, sucrose gradient flotation, COS-1; details: glycan lost; control: wild type
[2] = confocal colocalisation with GFP-Rab4, transfected HeLa/COS-1; details: glycan lost; control: wild type

B1: human ClC-6 (hClC-6a): AAA-hClC-6 (protein)
parent chain: MAGCRGSLCCCCRWCCCCGERETRTPEELTILGETQEEEDEILPRKDYESLDYDRCINDPYLEVLETMDNKKGRRYEAVKWMVVFAIGVCTGLVGLFVDFFVRLFTQLKFGVVQTSVEECSQKGCLALSLLELLGFNLTFVFLASLLVLIEPVAAGSGIPEVKCYLNGVKVPGIVRLRTLLCKVLGVLFSVAGGLFVEKEGPMIHSGSVVGAGLPQFQSISLRKIQFNFPYFRSDRDKRDFVSAGAAAGVAAAFGAPIGGTLFSLEEGSSFWNQGLTWKVLFCSMSATFTLNFFRSGIQFGSWGSFQLPGLLNFGEFKCSDSDKKCHLWTAMDLGFFVVMGVIGGLLGATFNCLNKRLAKYRMRNVHPKPKLVRVLESLLVSLVTTVVVFVASMVLGECRQMSSSSQIGNDSFQLQVTEDVNSSIKTFFCPNDTYNDMATLFFNPQESAILQLFHQDGTFSPVTLALFFVLYFLLACWTYGISVPSGLFVPSLLCGAAFGRLVANVLKSYIGLGHIYSGTFALIGAAAFLGGVVRMTISLTVILIESTNEITYGLPIMVTLMVAKWTGDFFNKGIYDIHVGLRGVPLLEWETEVEMDKLRASDIMEPNLTYVYPHTRIQSLVSILRTTVHHAFPVVTENRGNEKEFMKGNQLISNNIKFKKSSILTRAGEQRKRSQSMKSYPSSELRNMCDEHIASEEPAEKEDLLQQMLERRYTPYPNLYPDQSPSEDWTMEERFRPLTFHGLILRSQLVTLLVRGVCYSESQSSASQPRLSYAEMAEDYPRYPDIHDLDLTLLNPRMIVDVTPYMNPSPFTVSPNTHVSQVFNLFRTMGLRHLPVVNAVGEIVGIITRHNLTYEFLQARLRQHYQTI
other: detergent-resistant membrane association [1]: no change
localisation_or_trafficking [2]: no change
